{"source": "paper PMC9584909", "about": "“Atomic resolution protein allostery from the multi-state structure of a PDZ domain” (Nature Communications, 2022)", "molecular_target": "T1, PDZ2 domain of human tyrosine phosphatase 1E (hPTP1E) (human, UniProt Q12923 1361-1456)", "T1 construct": "PDZ2 domain of human tyrosine phosphatase 1E (hPTP1E); Uniformly 15N- or 15N,13C-enriched for NMR; also called apo PDZ2; holo PDZ2; source: E. coli BL21 (DE3), purified (Ni-NTA, tag cleaved with HRV-3C protease, second Ni-NTA pass); not shown: polyhistidine, N-terminal, cleaved", "T1 sequence": "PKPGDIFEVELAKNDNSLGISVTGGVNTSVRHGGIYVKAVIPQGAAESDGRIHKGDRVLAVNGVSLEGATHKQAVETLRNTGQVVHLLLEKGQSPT", "test": "NMR titration; [1H,15N]-HSQC of uniformly 15N-enriched PDZ2, free and with the peptide in twofold excess; 298 K; 150 mM sodium chloride, 50 mM phosphate buffer pH 6.8; chemical shift perturbation", "settings": "both partners purified"}
{"binder": "Ac-ENEQVSAV-OH (the eight C-terminal residues of Ras-associated / Rap guanine nucleotide exchange factor 2 (RA-GEF2); also called RA-GEF2 peptide; source: synthetic peptide, bought: BACHEM)", "values": [{"measurement": "binding result", "result": "binds"}]}
